Assay results: the supplement of paper PMC10567573

B1: USP39 (parent)
chain: FQGSMRIFTKKLPHPDLPAEEKEQ
B2: RAD54B (parent)
chain: YVQEKRDGLKRRQQLEEELLRAKI

Variants of: B1
Experiment: protein stability index of a GFP-peptide fusion (GPS, HEK-293T) (PSI 1-6); higher = more stable
Conditions: c terminus: a fixed tail appended
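Further: lentivirally expressed fusions sorted by FACS into six bins by GFP to DsRed ratio, PSI derived from sequencing read proportions per bin multiplied by bin number.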

Variant | protein stability index
FQGFMRIFTKKLPHPDLPAEEKEQ [S4F] | 1.1
FQGHMRIFTKKLPHPDLPAEEKEQ [S4H] | 1.69
FQGEMRIFTKKLPHPDLPAEEKEQ [S4E] | 2.28
FQGVMRIFTKKLPHPDLPAEEKEQ [S4V] | 1.95
FQGCMRIFTKKLPHPDLPAEEKEQ [S4C] | 1.39
FQGWMRIFTKKLPHPDLPAEEKEQ [S4W] | 2.04
FQGDMRIFTKKLPHPDLPAEEKEQ [S4D] | 1.33
FQGRMRIFTKKLPHPDLPAEEKEQ [S4R] | 2.46
FQGTMRIFTKKLPHPDLPAEEKEQ [S4T] | 1.98
FQGQMRIFTKKLPHPDLPAEEKEQ [S4Q] | 2.25
FQGIMRIFTKKLPHPDLPAEEKEQ [S4I] | 2.27
FQGAMRIFTKKLPHPDLPAEEKEQ [S4A] | 2.33
FQGNMRIFTKKLPHPDLPAEEKEQ [S4N] | 1.79
FQGKMRIFTKKLPHPDLPAEEKEQ [S4K] | 2.37
FQGMMRIFTKKLPHPDLPAEEKEQ [S4M] | 4.08
FQGPMRIFTKKLPHPDLPAEEKEQ [S4P] | 2.3
FQFSMRIFTKKLPHPDLPAEEKEQ [G3F] | 1.68
FQQSMRIFTKKLPHPDLPAEEKEQ [G3Q] | 3.51
FQLSMRIFTKKLPHPDLPAEEKEQ [G3L] | 2.23
FQTSMRIFTKKLPHPDLPAEEKEQ [G3T] | 3
FQNSMRIFTKKLPHPDLPAEEKEQ [G3N] | 2.2
FQPSMRIFTKKLPHPDLPAEEKEQ [G3P] | 2.53
FQDSMRIFTKKLPHPDLPAEEKEQ [G3D] | 1.61
FQYSMRIFTKKLPHPDLPAEEKEQ [G3Y] | 2.57

Variant | protein stability index
FQISMRIFTKKLPHPDLPAEEKEQ [G3I] | 2.07
FQMSMRIFTKKLPHPDLPAEEKEQ [G3M] | 2.67
FQWSMRIFTKKLPHPDLPAEEKEQ [G3W] | 1.85
FQSSMRIFTKKLPHPDLPAEEKEQ [G3S] | 2.31
FQASMRIFTKKLPHPDLPAEEKEQ [G3A] | 2.61
FQRSMRIFTKKLPHPDLPAEEKEQ [G3R] | 3.64
FQKSMRIFTKKLPHPDLPAEEKEQ [G3K] | 3.37
FQCSMRIFTKKLPHPDLPAEEKEQ [G3C] | 1.86
FQVSMRIFTKKLPHPDLPAEEKEQ [G3V] | 2.01
FQHSMRIFTKKLPHPDLPAEEKEQ [G3H] | 2.54
FQESMRIFTKKLPHPDLPAEEKEQ [G3E] | 2.17
TQGSMRIFTKKLPHPDLPAEEKEQ [F1T] | 4.86
LQGSMRIFTKKLPHPDLPAEEKEQ [F1L] | 4.29
MQGSMRIFTKKLPHPDLPAEEKEQ [F1M] | 4.19
KQGSMRIFTKKLPHPDLPAEEKEQ [F1K] | 4.9
VQGSMRIFTKKLPHPDLPAEEKEQ [F1V] | 4.52
DQGSMRIFTKKLPHPDLPAEEKEQ [F1D] | 5.37
QQGSMRIFTKKLPHPDLPAEEKEQ [F1Q] | 4.89
WQGSMRIFTKKLPHPDLPAEEKEQ [F1W] | 4.78
PQGSMRIFTKKLPHPDLPAEEKEQ [F1P] | 4.83
GQGSMRIFTKKLPHPDLPAEEKEQ [F1G] | 4.66
AQGSMRIFTKKLPHPDLPAEEKEQ [F1A] | 5.07
YQGSMRIFTKKLPHPDLPAEEKEQ [F1Y] | 2.11
IQGSMRIFTKKLPHPDLPAEEKEQ [F1I] | 4.17

Variant | protein stability index
SQGSMRIFTKKLPHPDLPAEEKEQ [F1S] | 5.04
EQGSMRIFTKKLPHPDLPAEEKEQ [F1E] | 5.48
NQGSMRIFTKKLPHPDLPAEEKEQ [F1N] | 5.22
CQGSMRIFTKKLPHPDLPAEEKEQ [F1C] | 4.82
HQGSMRIFTKKLPHPDLPAEEKEQ [F1H] | 4.53
RQGSMRIFTKKLPHPDLPAEEKEQ [F1R] | 4.95
FLGSMRIFTKKLPHPDLPAEEKEQ [Q2L] | 2.73
FSGSMRIFTKKLPHPDLPAEEKEQ [Q2S] | 2.7
FPGSMRIFTKKLPHPDLPAEEKEQ [Q2P] | 1.75
FCGSMRIFTKKLPHPDLPAEEKEQ [Q2C] | 3.34
FFGSMRIFTKKLPHPDLPAEEKEQ [Q2F] | 2.99
FNGSMRIFTKKLPHPDLPAEEKEQ [Q2N] | 2.85
FRGSMRIFTKKLPHPDLPAEEKEQ [Q2R] | 3.89
FMGSMRIFTKKLPHPDLPAEEKEQ [Q2M] | 3.46
FIGSMRIFTKKLPHPDLPAEEKEQ [Q2I] | 1.78
FGGSMRIFTKKLPHPDLPAEEKEQ [Q2G] | 3.26
FWGSMRIFTKKLPHPDLPAEEKEQ [Q2W] | 2.82
FHGSMRIFTKKLPHPDLPAEEKEQ [Q2H] | 3.58
FYGSMRIFTKKLPHPDLPAEEKEQ [Q2Y] | 2.92
FDGSMRIFTKKLPHPDLPAEEKEQ [Q2D] | 4.49
FKGSMRIFTKKLPHPDLPAEEKEQ [Q2K] | 4.16
FAGSMRIFTKKLPHPDLPAEEKEQ [Q2A] | 2.29
FEGSMRIFTKKLPHPDLPAEEKEQ [Q2E] | 4.12
FTGSMRIFTKKLPHPDLPAEEKEQ [Q2T] | 2.2

Variants of: B2
Experiment: as above
Conditions: c terminus: a fixed tail appended

Variant | protein stability index
YVQEKRDGLKRRQQLEEELLRAYI [K23Y] | 1.49
YVQEKRDGLKRRQQLEEELLRAWI [K23W] | 1.59
YVQEKRDGLKRRQQLEEELLRAVI [K23V] | 2.25
YVQEKRDGLKRRQQLEEELLRAKQ [I24Q] | 2.22
YVQEKRDGLKRRQQLEEELLRAKS [I24S] | 1.93
YVQEKRDGLKRRQQLEEELLRAKT [I24T] | 1.58
YVQEKRDGLKRRQQLEEELLRAKF [I24F] | 1.98
YVQEKRDGLKRRQQLEEELLRAKM [I24M] | 2.05
YVQEKRDGLKRRQQLEEELLRAKD [I24D] | 2.73
YVQEKRDGLKRRQQLEEELLRAKW [I24W] | 2.28
YVQEKRDGLKRRQQLEEELLRAKA [I24A] | 1.98
YVQEKRDGLKRRQQLEEELLRAKH [I24H] | 2.38
YVQEKRDGLKRRQQLEEELLRAKE [I24E] | 2.17
YVQEKRDGLKRRQQLEEELLRAKL [I24L] | 1.65
YVQEKRDGLKRRQQLEEELLRAKC [I24C] | 1.75
YVQEKRDGLKRRQQLEEELLRAKG [I24G] | 2.08
YVQEKRDGLKRRQQLEEELLRAKV [I24V] | 1.92
YVQEKRDGLKRRQQLEEELLRAKR [I24R] | 1.68
YVQEKRDGLKRRQQLEEELLRAKK [I24K] | 1.87
YVQEKRDGLKRRQQLEEELLRAKP [I24P] | 2.45
YVQEKRDGLKRRQQLEEELLRAKN [I24N] | 2.18
YVQEKRDGLKRRQQLEEELLRAKY [I24Y] | 1.74
